Legend:
Experiment in all cases: cell-based or functional assay
[1] = molecular target: HIV-1 Env of pseudovirus BJOX028000.10.3 (HIV-1)
[2] = molecular target: HIV-1 Env of pseudovirus MS208.A1 (HIV-1)
[3] = molecular target: HIV-1 Env of pseudovirus 3016.v5.c45 (HIV-1)
[4] = molecular target: HIV-1 Env of pseudovirus 620345.c01 (HIV-1)
[5] = molecular target: HIV-1 Env of pseudovirus 1394C9G1(Rev-) (HIV-1)
[6] = molecular target: HIV-1 Env of pseudovirus 89-F1_2_25 (HIV-1)
[7] = molecular target: HIV-1 Env of pseudovirus BF1266.431a (HIV-1)
[8] = molecular target: HIV-1 Env of pseudovirus CAAN5342.A2 (HIV-1)
[9] = molecular target: HIV-1 Env of pseudovirus HIV-001428-2.42 (HIV-1)
[10] = molecular target: HIV-1 Env of pseudovirus AC10.0.29 (HIV-1)
[11] = molecular target: HIV-1 Env of pseudovirus 6041.v3.c23 (HIV-1)
[12] = molecular target: HIV-1 Env of pseudovirus R2184.c04 (HIV-1)
[13] = molecular target: HIV-1 Env of pseudovirus Ce704809221_1B3 (HIV-1)
[14] = molecular target: HIV-1 Env of pseudovirus C2101.c01 (HIV-1)
[15] = molecular target: HIV-1 Env of pseudovirus Ce2010_F5 (HIV-1)
[16] = molecular target: HIV-1 Env of pseudovirus 6240_08_TA5_4622 (HIV-1)
[17] = molecular target: HIV-1 Env of pseudovirus 3817.v2.c59 (HIV-1)
[18] = molecular target: HIV-1 Env of pseudovirus Q461.e2 (HIV-1)
[19] = molecular target: HIV-1 Env of pseudovirus CNE20 (HIV-1)
[20] = molecular target: HIV-1 Env of pseudovirus 3103.v3.c10 (HIV-1)
[21] = molecular target: HIV-1 Env of pseudovirus Q23.17 (HIV-1)
[22] = molecular target: HIV-1 Env of pseudovirus SC05_8C11_2344 (HIV-1)
[23] = molecular target: HIV-1 Env of pseudovirus ZM214M.PL15 (HIV-1)
[24] = molecular target: HIV-1 Env of pseudovirus A07412M1.vrc12 (HIV-1)
[25] = molecular target: HIV-1 Env of pseudovirus Q842.d12 (HIV-1)
[26] = molecular target: HIV-1 Env of pseudovirus ZM249M.PL1 (HIV-1)
[27] = molecular target: HIV-1 Env of pseudovirus ZM233M.PB6 (HIV-1)
[28] = molecular target: HIV-1 Env of pseudovirus QH0692.42 (HIV-1)
[29] = molecular target: HIV-1 Env of pseudovirus WEAU_d15_410_787 (HIV-1)
[30] = molecular target: HIV-1 Env of pseudovirus 249M B10 (HIV-1)
[31] = molecular target: HIV-1 Env of pseudovirus 9004SS_A3_4 (HIV-1)
[32] = molecular target: HIV-1 Env of pseudovirus 3415.v1.c1 (HIV-1)
[33] = molecular target: MuLV envelope (negative control pseudovirus)

B1: N49P22 (antibody, V domains shown)
V domain 1: HIQLLQSGPQVKKSGDTVRISCETSGYNFVDSRIHWVRQTPEKRLRWMGWINPLQGGVNYAPEFQGRIRMTRDTFIDTVYVDLSGLTPADTAYYYCARGIDGKSYPFHFWGHGTRVTVFS
V domain 2: RFALTQPASVSGSPGQTITITCAGGSVSWFHFPPGKTPRLIIYESSKRPSGVSPRFSGSQSGSTASLIISGLQSDDEGTYFCSILEFFGRGTLVTVLS
- IC50 [1]: > 50 µg/mL
- IC80 [1]: > 50 µg/mL
- MPI [1]: 0
- IC50 [2]: > 50 µg/mL
- IC80 [2]: > 50 µg/mL
- MPI [2]: 17
- IC50 [3]: > 50 µg/mL
- IC80 [3]: > 50 µg/mL
- MPI [3]: 23
- IC50 [4]: > 50 µg/mL
- IC80 [4]: > 50 µg/mL
- MPI [4]: 0
- IC50 [5]: > 50 µg/mL
- IC80 [5]: > 50 µg/mL
- MPI [5]: 35
- IC50 [6]: > 50 µg/mL
- IC80 [6]: > 50 µg/mL
- MPI [6]: 10
- IC50 [7]: > 50 µg/mL
- IC80 [7]: > 50 µg/mL
- MPI [7]: 0
- IC50 [8]: 0.425 µg/mL
- IC80 [8]: 1.88 µg/mL
- MPI [8]: 99
- IC50 [9]: 0.73 µg/mL
- IC80 [9]: 7.1 µg/mL
- MPI [9]: 91
- IC50 [10]: > 50 µg/mL
- IC80 [10]: > 50 µg/mL
- MPI [10]: 0
- IC50 [11]: 7.55 µg/mL
- IC80 [11]: > 50 µg/mL
- MPI [11]: 66
- IC50 [12]: 0.077 µg/mL
- IC80 [12]: 0.342 µg/mL
- MPI [12]: 100
- IC50 [13]: 15.8 µg/mL
- IC80 [13]: > 50 µg/mL
- MPI [13]: 60
- IC50 [14]: 0.171 µg/mL
- IC80 [14]: 1.06 µg/mL
- MPI [14]: 99
- IC50 [15]: 2.05 µg/mL
- IC80 [15]: 11.7 µg/mL
- MPI [15]: 93
- IC50 [16]: 2.33 µg/mL
- IC80 [16]: 9.76 µg/mL
- MPI [16]: 93
- IC50 [17]: > 50 µg/mL
- IC80 [17]: > 50 µg/mL
- MPI [17]: 12
- IC50 [18]: 11.2 µg/mL
- IC80 [18]: > 50 µg/mL
- MPI [18]: 66
- IC50 [19]: > 50 µg/mL
- IC80 [19]: > 50 µg/mL
- MPI [19]: 18
- IC50 [20]: > 50 µg/mL
- IC80 [20]: > 50 µg/mL
- MPI [20]: 16
- IC50 [21]: 0.321 µg/mL
- IC80 [21]: 2.4 µg/mL
- MPI [21]: 96
- IC50 [22]: 0.251 µg/mL
- IC80 [22]: 2.16 µg/mL
- MPI [22]: 97
- IC50 [23]: > 50 µg/mL
- IC80 [23]: > 50 µg/mL
- MPI [23]: 25
- IC50 [24]: 9.6 µg/mL
- IC80 [24]: > 50 µg/mL
- MPI [24]: 63
- IC50 [25]: 0.079 µg/mL
- IC80 [25]: 0.359 µg/mL
- MPI [25]: 100
- IC50 [26]: > 50 µg/mL
- IC80 [26]: > 50 µg/mL
- MPI [26]: 0
- IC50 [27]: > 50 µg/mL
- IC80 [27]: > 50 µg/mL
- MPI [27]: 2
- IC50 [28]: 0.592 µg/mL
- IC80 [28]: 2.02 µg/mL
- MPI [28]: 100
- IC50 [29]: 1.54 µg/mL
- IC80 [29]: > 50 µg/mL
- MPI [29]: 76
- IC50 [30]: > 50 µg/mL
- IC80 [30]: > 50 µg/mL
- MPI [30]: 4
- IC50 [31]: > 50 µg/mL
- IC80 [31]: > 50 µg/mL
- MPI [31]: 42
- IC50 [32]: 0.198 µg/mL
- IC80 [32]: 1.41 µg/mL
- MPI [32]: 96
- IC50 [33]: > 50 µg/mL
- IC80 [33]: > 50 µg/mL
- MPI [33]: 8

B2: N49P23 (antibody, V domains shown)
VH: QVRLVQSGAGARKTGASMKLSCSTSGYTFTTHHGHFINWVRQARGQGLEWMGWMNPMTGQMNIEGKFQGRVTLTRDIYSDTAYMEMTRLTTGDTGTYYCARGDFGQNYPFHYWGQGSLVIVSS
VL: LSALTQPASVSGSPGQSVTISCSGTNRYLVSWYQQHPDKAPKLIIYDDNKRPSGISDRFSASRPDDTASLTISGLQTGDEATYWCASYERFGGGTRLTVLS
- IC50 [1]: 0.021 µg/mL
- IC80 [1]: 0.123 µg/mL
- MPI [1]: 98
- IC50 [2]: 0.048 µg/mL
- IC80 [2]: 0.279 µg/mL
- MPI [2]: 100
- IC50 [3]: 0.027 µg/mL
- IC80 [3]: 0.092 µg/mL
- MPI [3]: 100
- IC50 [4]: > 50 µg/mL
- IC80 [4]: > 50 µg/mL
- MPI [4]: 0
- IC50 [5]: > 50 µg/mL
- IC80 [5]: > 50 µg/mL
- MPI [5]: 34
- IC50 [6]: > 50 µg/mL
- IC80 [6]: > 50 µg/mL
- MPI [6]: 5
- IC50 [7]: 0.083 µg/mL
- IC80 [7]: 0.44 µg/mL
- MPI [7]: 99
- IC50 [8]: 0.412 µg/mL
- IC80 [8]: 1.38 µg/mL
- MPI [8]: 100
- IC50 [9]: 0.036 µg/mL
- IC80 [9]: 0.241 µg/mL
- MPI [9]: 98
- IC50 [10]: > 50 µg/mL
- IC80 [10]: > 50 µg/mL
- MPI [10]: 0
- IC50 [11]: 7.47 µg/mL
- IC80 [11]: > 50 µg/mL
- MPI [11]: 63
- IC50 [12]: 0.008 µg/mL
- IC80 [12]: 0.032 µg/mL
- MPI [12]: 100
- IC50 [13]: 0.083 µg/mL
- IC80 [13]: 0.643 µg/mL
- MPI [13]: 100
- IC50 [14]: 0.056 µg/mL
- IC80 [14]: 0.362 µg/mL
- MPI [14]: 100
- IC50 [15]: 1.59 µg/mL
- IC80 [15]: 11.6 µg/mL
- MPI [15]: 91
- IC50 [16]: 0.215 µg/mL
- IC80 [16]: 1 µg/mL
- MPI [16]: 100
- IC50 [17]: > 50 µg/mL
- IC80 [17]: > 50 µg/mL
- MPI [17]: 41
- IC50 [18]: 0.099 µg/mL
- IC80 [18]: 0.464 µg/mL
- MPI [18]: 100
- IC50 [19]: 45.4 µg/mL
- IC80 [19]: > 50 µg/mL
- MPI [19]: 51
- IC50 [20]: 43.8 µg/mL
- IC80 [20]: > 50 µg/mL
- MPI [20]: 54
- IC50 [21]: 0.01 µg/mL
- IC80 [21]: 0.046 µg/mL
- MPI [21]: 100
- IC50 [22]: 0.133 µg/mL
- IC80 [22]: 0.548 µg/mL
- MPI [22]: 100
- IC50 [23]: 0.061 µg/mL
- IC80 [23]: 0.614 µg/mL
- MPI [23]: 100
- IC50 [24]: 0.114 µg/mL
- IC80 [24]: 0.83 µg/mL
- MPI [24]: 97
- IC50 [25]: 0.007 µg/mL
- IC80 [25]: 0.022 µg/mL
- MPI [25]: 100
- IC50 [26]: > 50 µg/mL
- IC80 [26]: > 50 µg/mL
- MPI [26]: 2
- IC50 [27]: > 50 µg/mL
- IC80 [27]: > 50 µg/mL
- MPI [27]: 14
- IC50 [28]: 0.557 µg/mL
- IC80 [28]: 2.51 µg/mL
- MPI [28]: 100
- IC50 [29]: 0.009 µg/mL
- IC80 [29]: 0.031 µg/mL
- MPI [29]: 100
- IC50 [30]: > 50 µg/mL
- IC80 [30]: > 50 µg/mL
- MPI [30]: 20
- IC50 [31]: 0.043 µg/mL
- IC80 [31]: 0.223 µg/mL
- MPI [31]: 100
- IC50 [32]: 0.054 µg/mL
- IC80 [32]: 0.19 µg/mL
- MPI [32]: 100
- IC50 [33]: > 50 µg/mL
- IC80 [33]: > 50 µg/mL
- MPI [33]: 9
